Test results from publication doi:10.1101/2024.11.27.625426 (bioRxiv, 2024).

Molecular target: N1-CA09-sNAp, stabilized neuraminidase protein of A/California/04/2009 (H1N1) (influenza A virus A/California/04/2009 (H1N1)) (UniProt C3W5S3)
Assay: cryo-EM structure

N1-CA09-sNAp, stabilized neuraminidase protein of A/California/04/2009 (H1N1) (from UniProt C3W5S3 1-469) (enzyme)
stoichiometry N: 4 protomers
